± gives the uncertainty stated by the source.
B1: Homeobox protein cut-like 1, residues 548 to 629; numbered along this chain, P39880 (parent)
chain: GEEMDTAEIARQVKEQLIKHNIGQRIFGHYVLGLSQGSVSEILARPKPWNKLTVRGKEPFHKMKQFLSDEQNILALRSIQGR

Variants of: B1
Assay: abundance fitness (aPCA) (normalised: wild type 0, dead -1); higher = more abundant; growth selection in yeast, the domain comes from the species named
Conditions: Homo sapiens

Variant | abundance fitness
P48W | -0.325 ± 0.033
P48S | -0.168 ± 0.036
P48E | -0.126 ± 0.031
P48R | -0.475 ± 0.029
P48A | -0.119 ± 0.028
P48M | -0.27 ± 0.043
P48F | -0.513 ± 0.11
P48N | -0.446 ± 0.083
P48C | -0.268 ± 0.055
P48Y | -0.78 ± 0.12
P48K | -0.452 ± 0.049
P48D | -0.267 ± 0.058
P48Q | -0.247 ± 0.038
P48G | -0.539 ± 0.028
P48I | -0.438 ± 0.1
P48H | -0.16 ± 0.061
P48V | -0.374 ± 0.032
K51N | 0.012 ± 0.07
K51M | -0.011 ± 0.066
K51L | 0.011 ± 0.058
K51R | -0.047 ± 0.044
K51V | 0.053 ± 0.048
K51G | -0.198 ± 0.05
K51S | 0.006 ± 0.053

Variant | abundance fitness
K51Y | -0.195 ± 0.073
K51F | -0.098 ± 0.097
K51E | 0.063 ± 0.063
K51I | -0.008 ± 0.12
K51Q | 0.122 ± 0.08
K51H | -0.075 ± 0.12
K51D | 0.054 ± 0.082
K51T | 0.011 ± 0.07
K51W | -0.338 ± 0.079
K51P | -0.912 ± 0.27
N50M | -0.23 ± 0.11
N50C | 0.064 ± 0.14
N50V | -0.309 ± 0.088
N50H | -0.074 ± 0.098
N50L | -0.424 ± 0.092
N50E | -0.071 ± 0.2
N50R | -0.04 ± 0.066
N50G | -0.129 ± 0.084
N50T | -0.16 ± 0.067
N50A | -0.062 ± 0.072
N50P | -0.003 ± 0.14
N50F | -0.265 ± 0.13
N50W | -0.151 ± 0.085
N50Y | -0.165 ± 0.13

Variant | abundance fitness
N50Q | -0.057 ± 0.13
N50D | -0.103 ± 0.12
N50K | -0.093 ± 0.076
N50S | 0.073 ± 0.07
T53K | -0.686 ± 0.096
T53D | 0.116 ± 0.054
T53A | -0.341 ± 0.049
T53M | -0.45 ± 0.059
T53P | -0.254 ± 0.046
T53V | -0.671 ± 0.059
T53Y | -0.821 ± 0.13
T53R | -0.767 ± 0.064
T53F | -0.55 ± 0.069
T53W | -0.566 ± 0.066
T53I | -0.521 ± 0.069
T53E | -0.251 ± 0.059
T53N | -0.077 ± 0.047
T53S | 0.049 ± 0.033
T53H | -0.432 ± 0.062
T53G | -0.032 ± 0.046
T53Q | -0.369 ± 0.064
V54G | -0.04 ± 0.042
V54R | -0.028 ± 0.041
V54C | -0.063 ± 0.051

Variant | abundance fitness
V54K | 0.058 ± 0.057
V54F | -0.094 ± 0.051
V54W | -0.173 ± 0.061
V54I | -0.001 ± 0.039
V54T | 0.03 ± 0.038
V54A | 0.066 ± 0.032
V54P | 0.036 ± 0.046
V54Q | 0.064 ± 0.052
V54M | 0.119 ± 0.056
V54E | 0.136 ± 0.06
V54S | -0.033 ± 0.035
V54D | 0.052 ± 0.047
V54N | 0.08 ± 0.049
V54L | 0.028 ± 0.036
V54Y | -0.033 ± 0.048
P46N | -0.685 ± 0.092
P46R | -0.925 ± 0.046
P46W | -0.356 ± 0.036
P46M | -0.459 ± 0.053
P46H | -0.746 ± 0.12
P46V | -0.37 ± 0.028
P46I | -0.26 ± 0.058
P46L | -0.356 ± 0.037
P46G | -0.77 ± 0.034

Variant | abundance fitness
P46Y | -0.594 ± 0.081
P46Q | -0.482 ± 0.051
P46S | -0.652 ± 0.046
P46K | -0.938 ± 0.12
G56D | 0.036 ± 0.043
G56F | -0.224 ± 0.068
G56H | -0.352 ± 0.082
G56C | -0.279 ± 0.056
G56L | -0.098 ± 0.031
G56I | -0.282 ± 0.07
G56E | 0.085 ± 0.029
G56K | -0.595 ± 0.057
L52A | -1.04 ± 0.12
L52E | -1.02 ± 0.15
L52V | -0.879 ± 0.07
L52F | -0.915 ± 0.14
L52C | -0.484 ± 0.065
L52P | -0.97 ± 0.14
L52Y | -0.602 ± 0.078
L52Q | -0.825 ± 0.11
L52H | -1.02 ± 0.16
L52N | -1.1 ± 0.29
L52K | -1.13 ± 0.24
L52T | -0.99 ± 0.2

Variant | abundance fitness
L52R | -1.1 ± 0.097
L52D | -1.17 ± 0.23
L52S | -0.97 ± 0.082
L52I | -0.538 ± 0.13
R55C | -0.051 ± 0.055
R55V | -0.06 ± 0.028
R55T | 0.007 ± 0.033
R55N | -0.142 ± 0.071
R55E | 0.135 ± 0.028
R55D | 0.027 ± 0.042
R55M | -0.028 ± 0.038
R55L | -0.04 ± 0.031
R55P | -0.159 ± 0.036
R55F | -0.041 ± 0.094
R55H | 0.077 ± 0.058
R55I | -0.148 ± 0.063
R55A | 0.075 ± 0.026
R55S | 0.004 ± 0.031
R55Q | 0.067 ± 0.034
R55W | -0.095 ± 0.032
R55G | -0.011 ± 0.023
R55Y | -0.096 ± 0.068
R55K | 0.066 ± 0.031
K47V | -0.015 ± 0.028

Variant | abundance fitness
K47G | -0.288 ± 0.025
K47I | -0.086 ± 0.058
K47H | -0.276 ± 0.068
K47E | -0.037 ± 0.032
K47T | -0.019 ± 0.033
K47A | -0.116 ± 0.028
K47Y | -0.432 ± 0.082
K47Q | 0.03 ± 0.035
K47W | -0.329 ± 0.033
K47R | -0.072 ± 0.025
K47F | -0.338 ± 0.071
K47M | -0.06 ± 0.035
K47S | -0.126 ± 0.034
K47L | 0.028 ± 0.028
K47D | -0.08 ± 0.044
K47N | -0.339 ± 0.06
W49E | -0.273 ± 0.26
W49L | -0.506 ± 0.23
W49R | -0.574 ± 0.16
W49S | -0.477 ± 0.22
W49V | -0.529 ± 0.14
W49T | -0.509 ± 0.31
W49A | -0.202 ± 0.14

— the Human Domainome abundance scans (Beltran et al. 2025)
